Reference: article PMC4675670

Substrate: O=C(O)[C@@H]1CCCN1
Assay: enzyme kinetics, Km
Assay type: biochemical, Homo sapiens

B1: human EPRS (bifunctional glutamyl-prolyl-tRNA synthetase) (Homo sapiens) (protein)
chain: MATLSLTVNSGDPPLGALLAVEHVKDDVSISVEEGKENILHVSENVIFTDVNSILRYLARVATTAGLYGSNLMEHTEIDHWLEFSATKLSSCDSFTSTINELNHCLSLRTYLVGNSLSLADLCVWATLKGNAAWQEQLKQKKAPVHVKRWFGFLEAQQAFQSVGTKWDVSTTKARVAPEKKQDVGKFVELPGAEMGKVTVRFPPEASGYLHIGHAKAALLNQHYQVNFKGKLIMRFDDTNPEKEKEDFEKVILEDVAMLHIKPDQFTYTSDHFETIMKYAEKLIQEGKAYVDDTPAEQMKAEREQRIDSKHRKNPIEKNLQMWEEMKKGSQFGQSCCLRAKIDMSSNNGCMRDPTLYRCKIQPHPRTGNKYNVYPTYDFACPIVDSIEGVTHALRTTEYHDRDEQFYWIIEALGIRKPYIWEYSRLNLNNTVLSKRKLTWFVNEGLVDGWDDPRFPTVRGVLRRGMTVEGLKQFIAAQGSSRSVVNMEWDKIWAFNKKVIDPVAPRYVALLKKEVIPVNVPEAQEEMKEVAKHPKNPEVGLKPVWYSPKVFIEGADAETFSEGEMVTFINWGNLNITKIHKNADGKIISLDAKLNLENKDYKKTTKVTWLAETTHALPIPVICVTYEHLITKPVLGKDEDFKQYVNKNSKHEELMLGDPCLKDLKKGDIIQLQRRGFFICDQPYEPVSPYSCKEAPCVLIYIPDGHTKEMPTSGSKEKTKVEATKNETSAPFKERPTPSLNNNCTTSEDSLVLYNRVAVQGDVVRELKAKKAPKEDVDAAVKQLLSLKAEYKEKTGQEYKPGNPPAEIGQNISSNSSASILESKSLYDEVAAQGEVVRKLKAEKSPKAKINEAVECLLSLKAQYKEKTGKEYIPGQPPLSQSSDSSPTRNSEPAGLETPEAKVLFDKVASQGEVVRKLKTEKAPKDQVDIAVQELLQLKAQYKSLIGVEYKPVSATGAEDKDKKKKEKENKSEKQNKPQKQNDGQRKDPSKNQGGGLSSSGAGEGQGPKKQTRLGLEAKKEENLADWYSQVITKSEMIEYHDISGCYILRPWAYAIWEAIKDFFDAEIKKLGVENCYFPMFVSQSALEKEKTHVADFAPEVAWVTRSGKTELAEPIAIRPTSETVMYPAYAKWVQSHRDLPIKLNQWCNVVRWEFKHPQPFLRTREFLWQEGHSAFATMEEAAEEVLQILDLYAQVYEELLAIPVVKGRKTEKEKFAGGDYTTTIEAFISASGRAIQGGTSHHLGQNFSKMFEIVFEDPKIPGEKQFAYQNSWGLTTRTIGVMTMVHGDNMGLVLPPRVACVQVVIIPCGITNALSEEDKEALIAKCNDYRRRLLSVNIRVRADLRDNYSPGWKFNHWELKGVPIRLEVGPRDMKSCQFVAVRRDTGEKLTVAENEAETKLQAILEDIQVTLFTRASEDLKTHMVVANTMEDFQKILDSGKIVQIPFCGEIDCEDWIKKTTARDQDLEPGAPSMGAKSLCIPFKPLCELQPGAKCVCGKNPAKYYTLFGRSY
B1 showed a Km of 135.4 µM.
